In PMC4557345:

Molecular target: Drosophila Orai (dOrai), expressed in HEK293T cells (Drosophila) (UniProt Q9U6B8)
Chain of UniProt Q9U6B8 (Q9U6B8 whole entry): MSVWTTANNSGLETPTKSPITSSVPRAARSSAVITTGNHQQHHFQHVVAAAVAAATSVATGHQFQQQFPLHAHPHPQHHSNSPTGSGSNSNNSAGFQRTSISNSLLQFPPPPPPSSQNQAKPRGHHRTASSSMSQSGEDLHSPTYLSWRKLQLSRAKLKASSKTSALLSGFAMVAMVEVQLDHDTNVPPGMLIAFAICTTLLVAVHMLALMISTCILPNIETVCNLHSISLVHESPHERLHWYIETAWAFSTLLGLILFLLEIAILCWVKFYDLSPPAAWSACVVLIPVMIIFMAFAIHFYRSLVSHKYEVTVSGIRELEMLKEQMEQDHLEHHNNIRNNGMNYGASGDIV

recovery time constant of the light-activated whole-cell current (patch clamp, HEK293T), against dmBACCS2 (fold of dmBACCS2)	Substance
< 0.5	dmBACCS2-N425S
> 100	dmBACCS2-V416L
